From PMC8896794 (Science Advances, 2022)

What was measured:
porcine TSHR = biological target: T1, porcine TSHR (Sus scrofa, UniProt Q8SPP9); assay: flow cytometry on cells; HEK293T cells transfected with pTSHR and GFP, mixed with PBS or purified mouse serum IgGs, washed, stained with M22 mAb, then APC-conjugated anti-human IgG
T1 construct: thyroid-stimulating hormone receptor, porcine, cDNA NM_214297.1; also called pTSHR; source: HEK293T, transfected (with GFP), on cells

[1] = biological target: T2, human TSHR extracellular domain complexed with HLA-DP5 (Homo sapiens; HLA-DPA1*02:02/DPB1*05:01, UniProt P16473;IMGT, strain); assay: flow cytometry on cells; HEK293T cells transfected with TSHR or TSHR ECD with or without HLA-DP (pME18S, with GFP), incubated with the human anti-TSHR mAb, then APC-conjugated anti-human IgG; FACSCalibur; MFI minus that of GFP-negative cells
T2 construct: human TSHR extracellular domain (ECD), residues 22 to 282; the ECD has no membrane anchor of its own and is seen on the cell surface with HLA-DP5; also called TSHR ECD with HLA-DP5; TSHR ECD/HLA-DP complex; source: HEK293T, co-transfected (pME18S), on cells; not shown: Flag, N-terminal, kept; copies: + +

[2] = biological target: T3, full-length human TSHR complexed with HLA-DP5 (HLA-DPA1*02:02/HLA-DPB1*05:01) (Homo sapiens; …, UniProt P16473;IMGT, strain); assay: as above
T3 construct: thyroid-stimulating hormone receptor (TSHR), human, cDNA AY429111.1, full length; co-expressed in one cell; also called TSHR with HLA-DP5; TSHR/HLA-DP5 complex; source: HEK293T, co-transfected (pME18S), on cells; copies: + +

[3] = biological target: T4, full-length mouse TSHR with I-A^k on DAP.3 cells (Mus musculus; I-Ak, UniProt P47750;P01910;P06343); assay: flow cytometry on cells; DAP.3 cells stably expressing mTSHR alone or mTSHR and I-A^k stained with K1-18 mAb; DAP.3 parental cells as control
T4 construct: thyroid-stimulating hormone receptor, mouse, cDNA NM_011648.5, full length; mouse MHC class II I-A^k alpha chain, cDNA V00832.1; mouse MHC class II I-A^k beta chain, cDNA M13538.1; co-expressed in one cell; also called mTSHR + I-A^k; mTSHR and I-A^k; copies: + +

[4] = biological target: T5, full-length mouse TSHR on DAP.3 cells (mTSHR alone) (Mus musculus, UniProt P47750); assay: as above
T5 construct: thyroid-stimulating hormone receptor, mouse, cDNA NM_011648.5, full length

[5] = biological target: T6, full-length human thyroid-stimulating hormone receptor, transfected alone (Homo sapiens, UniProt P16473); assay: flow cytometry on cells; HEK293T cells transfected with TSHR or TSHR ECD with or without HLA-DP (pME18S, with GFP), incubated with the human anti-TSHR mAb, then APC-conjugated anti-human IgG; FACSCalibur; MFI minus that of GFP-negative cells
T6 construct: thyroid-stimulating hormone receptor (TSHR), human, cDNA AY429111.1, full length; no MHC class II co-transfected; also called TSHR; human TSHR; source: HEK293T, transfected (pME18S), on cells

[6] = biological target: T7, full-length human TSHR cotransfected with HLA-DP4 (HLA-DPA1*01:03/HLA-DPB1*04:01) (Homo sapiens; HLA-DPA1*01:03/DPB1*04:01, UniProt P16473;IMGT, strain); assay: as above
T7 construct: thyroid-stimulating hormone receptor (TSHR), human, cDNA AY429111.1, full length; co-expressed in one cell; also called TSHR with HLA-DP4; source: HEK293T, co-transfected (pME18S), on cells; copies: + +

T5 sequence (P47750 22-764): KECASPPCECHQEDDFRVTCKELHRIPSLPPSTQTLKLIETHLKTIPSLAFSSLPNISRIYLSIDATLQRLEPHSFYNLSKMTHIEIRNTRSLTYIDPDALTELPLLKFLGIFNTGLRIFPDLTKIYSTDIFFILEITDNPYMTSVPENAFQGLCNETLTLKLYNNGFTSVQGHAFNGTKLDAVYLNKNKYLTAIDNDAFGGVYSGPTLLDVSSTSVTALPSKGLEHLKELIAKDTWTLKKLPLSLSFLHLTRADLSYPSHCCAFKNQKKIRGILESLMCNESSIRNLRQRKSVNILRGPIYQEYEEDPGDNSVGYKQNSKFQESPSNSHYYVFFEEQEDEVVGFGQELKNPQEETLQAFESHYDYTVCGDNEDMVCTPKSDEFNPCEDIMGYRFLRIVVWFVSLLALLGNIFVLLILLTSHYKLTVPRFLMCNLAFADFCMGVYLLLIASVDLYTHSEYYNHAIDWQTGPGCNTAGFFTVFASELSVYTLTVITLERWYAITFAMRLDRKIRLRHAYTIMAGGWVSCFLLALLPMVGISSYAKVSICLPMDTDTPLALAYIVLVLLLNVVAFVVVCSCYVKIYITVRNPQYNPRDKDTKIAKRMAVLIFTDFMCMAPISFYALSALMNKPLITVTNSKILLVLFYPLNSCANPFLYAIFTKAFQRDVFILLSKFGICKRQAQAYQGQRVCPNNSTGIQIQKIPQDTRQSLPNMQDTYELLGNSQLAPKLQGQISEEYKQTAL
T4 sequence (P47750 22-764, chain 1 of 3): as the sequence (P47750 22-764) above
T4 sequence (P01910 24-256, chain 2 of 3): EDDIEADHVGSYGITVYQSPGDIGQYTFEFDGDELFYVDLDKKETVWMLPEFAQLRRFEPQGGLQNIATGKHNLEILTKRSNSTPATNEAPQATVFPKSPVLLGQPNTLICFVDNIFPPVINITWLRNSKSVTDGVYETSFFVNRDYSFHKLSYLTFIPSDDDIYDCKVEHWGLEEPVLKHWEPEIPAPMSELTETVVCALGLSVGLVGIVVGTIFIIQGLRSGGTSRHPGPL
T4 sequence (P06343 28-263, chain 3 of 3): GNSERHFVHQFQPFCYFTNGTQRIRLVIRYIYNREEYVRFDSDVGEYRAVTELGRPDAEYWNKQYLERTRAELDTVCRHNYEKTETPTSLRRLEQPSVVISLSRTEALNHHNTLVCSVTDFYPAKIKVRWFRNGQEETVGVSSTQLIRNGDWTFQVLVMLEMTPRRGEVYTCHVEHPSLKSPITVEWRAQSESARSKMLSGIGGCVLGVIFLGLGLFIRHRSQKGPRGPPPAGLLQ
T1 sequence (Q8SPP9 22-764): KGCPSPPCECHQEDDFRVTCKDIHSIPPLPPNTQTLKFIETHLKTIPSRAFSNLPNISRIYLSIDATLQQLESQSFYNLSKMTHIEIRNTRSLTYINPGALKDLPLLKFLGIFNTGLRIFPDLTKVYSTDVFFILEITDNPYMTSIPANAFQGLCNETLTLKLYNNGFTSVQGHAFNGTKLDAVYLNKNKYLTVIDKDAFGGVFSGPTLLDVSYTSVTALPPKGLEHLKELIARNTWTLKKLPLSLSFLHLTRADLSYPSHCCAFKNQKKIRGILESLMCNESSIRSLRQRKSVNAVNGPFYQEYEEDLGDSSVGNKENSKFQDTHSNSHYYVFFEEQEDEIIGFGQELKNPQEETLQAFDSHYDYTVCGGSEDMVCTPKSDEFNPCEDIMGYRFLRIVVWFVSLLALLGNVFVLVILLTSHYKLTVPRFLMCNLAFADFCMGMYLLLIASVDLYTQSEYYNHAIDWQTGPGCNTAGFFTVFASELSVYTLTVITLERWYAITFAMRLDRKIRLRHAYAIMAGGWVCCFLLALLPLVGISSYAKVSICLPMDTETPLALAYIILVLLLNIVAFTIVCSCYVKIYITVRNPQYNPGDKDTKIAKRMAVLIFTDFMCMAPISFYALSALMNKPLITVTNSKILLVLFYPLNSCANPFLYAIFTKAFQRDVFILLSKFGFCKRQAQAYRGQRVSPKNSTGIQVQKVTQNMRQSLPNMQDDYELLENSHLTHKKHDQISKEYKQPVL

Row | Binder | binding result (porcine TSHR) | binding result [1] | binding result [2] | binding result [3] | binding result [4] | binding result [5] | binding result [6]
1 | M22 thyroid-stimulating monoclonal antibody (antibody, V domains shown, constant region of the λ chain is not described; IgG1; also called M22 mAb; source: recombinant, V regions synthesized and cloned into pME18S expression vectors) VH: QVQLVQSGAEVKKPGESLKISCRGSGYRFTSYWINWVRQLPGKGLEWMGRIDPTDSYTNYSPSFKGHVTVSADKSINTAYLQWSSLKASDTGMYYCARLEPGYSSTWSVNWGQGTLVTVSS VL: LTVLTQPPSVSGAPRQRVTISCSGNSSNIGNNAVNWYQQLPGKAPKLLIYYDDQLPSGVSDRFSGSRSGTSASLAIRGLQSEDEADYYCTSWDDSLDSQLFGGGTRLTVL | binds |  |  |  |  |  | 
2 | K1-18 monoclonal antibody, wild type (antibody, V domains shown, constant region of the λ chain is not described; IgG1; thyroid-stimulating autoantibody (TRAb) from a Graves' disease patient; also called WT K1-18; K1-18 mAb; source: recombinant, V regions synthesized and cloned into pME18S expression vectors) VH: EVQLVQSGAEVKKPGESLKISCKGSGYSFTNYWIGWVRQMPGKGLEWMGIIYPYDSDTRYSPSFEGQVTISADKSIRTAYLHWSSLKASDTAMYYCVRPRDGSYPYDAFDIWGQGTMVTVSS VL: EIVLTQSPGTLSLSPGERATLSCRASQSVSNNYLAWYQQKPGQAPRLLIYGASSRATGIPDRFSGSGSGTDFTLTISRLEPEDFAVYYCQHCGSSLRAFGQGTKVEIK |  | binds | binds | binds | binds |  | 
3 | germlined K1-18 monoclonal antibody (antibody, V domains shown, constant region of the λ chain is not described; IgG1; also called germlined K1-18 mAb; source: recombinant, mutated from wild-type K1-18 V regions (QuikChange), pME18S expression vectors) VH: EVQLVQSGAEVKKPGESLKISCKGSGYSFTSYWIGWVRQMPGKGLEWMGIIYPGDSDTRYSPSFEGQVTISADKSIRTAYLHWSSLKASDTAMYYCARPRDGSYPYDAFDIWGQGTMVTVSS VL: EIVLTQSPGTLSLSPGERATLSCRASQSVSSSYLAWYQQKPGQAPRLLIYGASSRATGIPDRFSGSGSGTDFTLTISRLEPEDFAVYYCQHCGSSLRAFGQGTKVEIK |  |  | binds |  |  | no binding | no binding
